Assay results published in patent US20240279281A1, “Peptide Inhibitors of Interleukin-23 Receptor” (Janssen Pharmaceutica NV, priority 2023, published 2024).
Starred links: 1 amine or outer side, 2 acyl side, 3 side chain; linkers in the order of their positions; H or OH if unused. Positions of bridges follow the written chain, without caps; N, C: chain ends. Non-standard residues stand in square brackets, D forms with d. Residues, ends and D or L forms follow the SMILES beside them. Groups on a side chain read outwards from the residue. No end group written: not given here. *: point of attachment. X5 = 2‑amino‑3‑(3-carbamoyl-1H-pyrazol-4-yl)propanoic acid, NC(=O)c1n[nH]cc1CC(N[*:1])C(=O)[*:2]; X4 = O=C([C@H](Cc1ccc2cc(-c3ccc(N4CCOCC4)cc3)ccc2c1)N[*:1])[*:2]; Me3N+(CH2)2O(CH2)2O(CH2)2CO = C[N+](C)(C)CCOCCOCCC(=O)*; 2Nal(6-OH) = N[C@@H](Cc1ccc2cc(O)ccc2c1)C(=O)O; Trp(7-Me) = Cc1cccc2c(C[C@H](N)C(=O)O)c[nH]c12; C18 diacid = O=C(O)CCCCCCCCCCCCCCCCC(=O)*; Dab(NMeAc) = CC(=O)N(C)CC[C@H](N)C(=O)O; γGlu = O=C(O)[C@H](CCC(=O)[*:2])N[*:1]; AEF = NCCOc1ccc(C[C@H](N)C(=O)O)cc1; 3Pal = N[C@@H](Cc1cccnc1)C(=O)O; Lys(Me) = CNCCCC[C@H](N)C(=O)O; Pen = CC(C)(S)[C@H](N)C(=O)O; Thp = NC1(C(=O)O)CCOCC1; AEEA = NCCOCCOCC(=O)O; Sar = CNCC(=O)O

Tests used:
[1] = target: T1, IL-23-stimulated phosphorylated STAT3 in peripheral blood mononuclear cells (PBMCs) (Homo sapiens, UniProt Q5VWK5); assay: PBMC pSTAT3 Assay; assay type: cell-based; conditions: PBMCs from healthy donors, IL-23 5 ng/mL, 30 minutes, read-out: PBMC pSTAT3 IC50
T1 sequence (Q5VWK5 24-629): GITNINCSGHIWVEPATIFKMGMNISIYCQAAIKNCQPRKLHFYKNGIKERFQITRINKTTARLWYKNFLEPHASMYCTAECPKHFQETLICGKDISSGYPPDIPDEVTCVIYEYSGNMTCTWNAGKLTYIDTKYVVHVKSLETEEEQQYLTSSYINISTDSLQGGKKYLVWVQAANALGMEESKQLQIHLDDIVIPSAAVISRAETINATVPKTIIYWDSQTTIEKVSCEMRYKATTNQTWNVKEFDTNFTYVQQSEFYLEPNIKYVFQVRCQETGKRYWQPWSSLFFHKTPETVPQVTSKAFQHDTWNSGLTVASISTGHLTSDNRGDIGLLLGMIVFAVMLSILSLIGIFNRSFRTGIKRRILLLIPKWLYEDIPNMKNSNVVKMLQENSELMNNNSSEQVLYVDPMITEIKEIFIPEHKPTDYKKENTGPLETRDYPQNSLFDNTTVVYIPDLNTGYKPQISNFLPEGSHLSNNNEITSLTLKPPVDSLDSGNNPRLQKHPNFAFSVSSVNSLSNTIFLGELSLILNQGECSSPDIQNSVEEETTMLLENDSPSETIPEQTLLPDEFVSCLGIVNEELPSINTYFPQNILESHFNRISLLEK
Experimental: Cryopreserved peripheral blood mononuclear cells (PBMCs) from healthy donors were thawed and washed twice in ImmunoCult-XF T cell expansion medium (XF-TCEM) supplemented with CTL anti-aggregate wash. The cells were counted, resuspended at 2-6×10^5 cells per mL XF-TCEM supplemented with penicillin/streptomycin and 100 ng/mL IL-1β (BioLegend, 579404), and cultured in tissue culture flasks coated with anti-CD3 (eBioscience, 16-0037-85 or BD Pharmingen, 555329) at 37° C. in 5% CO2. On day 4 of culture, PBMCs were collected, washed twice in RPMI-1640 supplemented with 0.1% BSA (RPMI-BSA), and incubated in RPMI-BSA in upright tissue culture flasks for ˜4 hours at 37° C. in 5% CO2. Following this ‘starvation,’ a total of 6×10^4 cells in 30 μL RPMI-BSA was transferred into each well of a 384-well plate pre-spotted with peptide or DMSO. The cells were incubated for 30 minutes prior to the addition of IL-23 at a final concentration of 5 ng/mL. The cells were stimulated with cytokine for 30 minutes at 37° C. in 5% CO2, transferred onto ice for 10 minutes, and lysed. Cell lysates were stored at −80° C. until phosphorylated STAT3 was measured using the phospho-STAT panel kit (Meso Scale Discovery, K15202D).

IL-23R = target: T2, IL-23R (Homo sapiens, UniProt Q5VWK5); assay: IL23R Reporter Assay; assay type: cell-based; conditions: HEK293 cells containing IL-23R, IL-12Rβ1 and STAT-inducible luciferase reporter; 10 ng/mL IL-23; 5 h; read-out: IC50
T2 construct: host or cells: HEK293
T2 sequence (Q5VWK5 24-629): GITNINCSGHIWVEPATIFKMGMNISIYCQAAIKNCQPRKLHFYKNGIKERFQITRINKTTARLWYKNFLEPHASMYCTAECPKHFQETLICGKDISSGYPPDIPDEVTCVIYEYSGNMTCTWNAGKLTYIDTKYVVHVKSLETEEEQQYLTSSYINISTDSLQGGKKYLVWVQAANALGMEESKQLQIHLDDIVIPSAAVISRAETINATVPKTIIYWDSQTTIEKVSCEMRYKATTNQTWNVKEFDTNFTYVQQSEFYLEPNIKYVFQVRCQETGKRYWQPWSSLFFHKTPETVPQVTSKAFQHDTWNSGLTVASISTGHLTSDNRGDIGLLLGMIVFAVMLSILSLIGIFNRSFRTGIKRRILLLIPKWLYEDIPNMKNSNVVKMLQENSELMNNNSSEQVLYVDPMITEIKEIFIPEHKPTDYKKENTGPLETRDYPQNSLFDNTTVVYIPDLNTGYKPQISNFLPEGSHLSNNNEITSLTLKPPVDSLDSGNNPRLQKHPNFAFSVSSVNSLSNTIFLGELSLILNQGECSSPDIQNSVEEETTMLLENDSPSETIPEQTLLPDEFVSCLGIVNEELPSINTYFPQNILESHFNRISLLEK
Experimental: Compounds were serially diluted in 100% (v/v) DMSO) and plated using an Echo acoustic dispenser (Labcyte) into 1536-well non-treated black assay plates (Corning #9146). […] After 5 h at 37° C., 5% CO2, 95% relative humidity, cells were placed at 20° C. and treated with BioGlo reagent (Promega) according to the Manufacturer's instructions. Luminescence was measured on a Pherastar FSX (BMG LabTech).

[2] = target: T3, interleukin-23 receptor (IL-23R), Q5VWK5; assay: cell-based or functional assay
T3 chain: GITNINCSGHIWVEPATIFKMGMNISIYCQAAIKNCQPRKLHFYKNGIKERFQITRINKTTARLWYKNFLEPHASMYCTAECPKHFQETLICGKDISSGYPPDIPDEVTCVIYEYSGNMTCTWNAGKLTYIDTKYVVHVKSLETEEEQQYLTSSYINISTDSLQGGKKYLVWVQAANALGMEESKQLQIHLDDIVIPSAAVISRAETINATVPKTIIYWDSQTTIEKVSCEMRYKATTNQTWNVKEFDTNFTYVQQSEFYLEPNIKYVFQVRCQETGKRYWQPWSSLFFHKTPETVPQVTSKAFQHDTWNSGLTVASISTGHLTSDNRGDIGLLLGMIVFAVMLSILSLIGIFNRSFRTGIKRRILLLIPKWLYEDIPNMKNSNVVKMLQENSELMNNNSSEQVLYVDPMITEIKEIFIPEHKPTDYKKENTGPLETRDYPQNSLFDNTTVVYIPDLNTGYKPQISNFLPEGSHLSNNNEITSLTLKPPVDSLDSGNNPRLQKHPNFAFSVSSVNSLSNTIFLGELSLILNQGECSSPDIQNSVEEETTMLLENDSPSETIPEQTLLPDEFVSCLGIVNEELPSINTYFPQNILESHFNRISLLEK

| Molecule | PBMC pSTAT3 IC50 [2] [nM] | IL23R Reporter Assay IC50 [2] [nM] | also measured |
| --- | --- | --- | --- |
| CC(=O)N(C)CCCC[C@@H]1NC(=O)[C@H](Cc2c[nH]c3c(C)cccc23)NC(=O)[C@H]([C@@H](C)O)NC(=O)[C@H](CC(=O)N(C)C)NC(=O)[C@@H](NC(=O)CCOCCOCC[N+](C)(C)C)C(C)(C)SSC(C)(C)[C@@H](C(=O)N[C@@H](Cc2ccc(OCCN)cc2)C(=O)N[C@@H](Cc2ccc3cc(O)ccc3c2)C(=O)NC2(C(=O)N[C@@H](CCN(C)C(C)=O)C(=O)N[C@@H](CC(N)=O)C(=O)N[C@@H](Cc3cccnc3)C(=O)N(C)CC(=O)N(C)C)CCOCC2)NC1=O [compound 371, cPEG3aCO-Pen(3)-N(N(Me)2)-T-7MeW-K(NMeAc)-Pen(3)-AEF-6OH2Nal-THP-Dab(NMeAc)-N-3Pya-Sar-CON(Me)2] ({Me3N+(CH2)2O(CH2)2O(CH2)2CO}-[Pen]D(NMe2)T[Trp(7-Me)][Lys(Me)](Ac)[Pen][AEF][2Nal(6-OH)][Thp][Dab(NMeAc)]N[3Pal][Sar]-NMe2; disulfide 1-6) |  |  | IC50 [1]: < 0.01 nM; IC50 (IL-23R): < 10 nM |
| CC(=O)NCCCC[C@@H]1NC(=O)[C@H](Cc2c[nH]c3c(C)cccc23)NC(=O)[C@H]([C@@H](C)O)NC(=O)[C@H](CC(N)=O)NC(=O)[C@@H](NC(C)=O)C(C)(C)SSC(C)(C)[C@@H](C(=O)N[C@@H](Cc2ccc(OCCN)cc2)C(=O)N[C@@H](Cc2ccc3cc(O)ccc3c2)C(=O)NC2(C(=O)N[C@@H](CCCCNC(=O)COCCOCCNC(=O)COCCOCCNC(=O)CC[C@H](NC(=O)CCCCCCCCCCCCCCCCC(=O)O)C(=O)O)C(=O)N[C@@H](CC(N)=O)C(=O)N[C@@H](Cc3cccnc3)C(=O)N(C)CC(N)=O)CCOCC2)NC1=O [SEQ ID NO: 273, MeCO-Pen(3)-N-T-7MeW-K(Ac)-Pen(3)-AEF-6OH2Nal-THP-K(PEG2PEG2gEC18OH)-N-3Pya-Sar-CONH2] (Ac-[Pen]NT[Trp(7-Me)]K(Ac)[Pen][AEF][2Nal(6-OH)][Thp]K([AEEA-AEEA-γGlu-C18 diacid])N[3Pal][Sar]-NH2; disulfide 1-6) |  |  | IC50 [1]: 0.01 to 0.1 nM; IC50 (IL-23R): 10 to 100 nM |
| CC(=O)NCCCC[C@@H]1NC(=O)[C@H](Cc2c[nH]c3c(C)cccc23)NC(=O)[C@H]([C@@H](C)O)NC(=O)[C@H](CC(N)=O)NC(=O)[C@@H](NC(=O)[C@@H](CCCNC(=N)N)NC(C)=O)C(C)(C)SSC(C)(C)[C@@H](C(=O)N[C@@H](Cc2ccc(OCCN)cc2)C(=O)N[C@@H](Cc2ccc3cc(-c4ccc(N5CCOCC5)cc4)ccc3c2)C(=O)NC2(C(=O)N[C@@H](CCC(=O)O)C(=O)N[C@@H](CC(N)=O)C(=O)NC3(C(N)=O)CCOCC3)CCOCC2)NC1=O [SEQ ID NO: 432, MeCO-r-Pen(3)-N-T-7MeW-K(Ac)-Pen(3)-AEF-2Nal6(Ph4(NMorph))-THP-E-N-THP-CONH2] (Ac-[dR][Pen]NT[Trp(7-Me)]K(Ac)[Pen][AEF][X4][Thp]EN[Thp]-NH2; disulfide 2-7) |  |  | IC50 (IL-23R): > 100 nM |
| R[Pen]NT[Trp(7-Me)]K[Pen][2‑amino‑3‑(4-(2-aminoethoxy)phenyl)propanoic acid][2‑amino‑3‑(6-hydroxynaphthalen-2-yl)propanoic acid][Thp]EN[3Pal][Sar] (not fully specified (bridges); ends and bridges not checked; also: K6: lipidated lysine, lipid not given here) [SEQ ID NO: 84] |  | < 10 |  |
| K[Pen]NT[Trp(7-Me)]K(Ac)[Pen][2‑amino‑3‑(4-(2-aminoethoxy)phenyl)propanoic acid][2‑amino‑3‑(6-hydroxynaphthalen-2-yl)propanoic acid][Thp]K(Ac)N[3Pal][Sar] (not fully specified (bridges); ends and bridges not checked; also: K1: lipidated lysine, lipid not given here) [SEQ ID NO: 85] |  | < 10 |  |
| R[Pen]NT[Trp(7-Me)]K(Ac)[Pen][2‑amino‑3‑(4-(2-aminoethoxy)phenyl)propanoic acid][2‑amino‑3‑(6-hydroxynaphthalen-2-yl)propanoic acid][Thp]EN[X5][Sar] (disulfide 2-7 (inferred); ends not checked) [SEQ ID NO: 440] | > 1 |  |  |
| R[Pen]NT[Trp(7-Me)]K(Ac)[Pen][2‑amino‑3‑(4-(2-aminoethoxy)phenyl)propanoic acid][2‑amino‑3‑(5-bromonaphthalen-2-yl)propanoic acid][Thp]EN[Thp] (disulfide 2-7 (inferred); ends not checked) [SEQ ID NO: 443] | > 1 |  |  |
| R[Pen]NT[Trp(7-Me)]K(Ac)[Pen][2‑amino‑3‑(4-(2-aminoethoxy)phenyl)propanoic acid][2‑amino‑3‑(6-hydroxynaphthalen-2-yl)propanoic acid][Thp]KN[3Pal][Sar] (not fully specified (bridges); ends and bridges not checked; also: K11: lipidated lysine, lipid not given here) [SEQ ID NO: 87] |  | < 10 |  |
| R[Pen]NT[Trp(7-Me)]K(Ac)[Pen][N,N,N‑trimethylethanaminium][2‑amino‑3‑(6-hydroxynaphthalen-2-yl)propanoic acid][Thp]EN[3Pal][Sar] (disulfide 2-7 (inferred); not fully specified; ends not checked) [SEQ ID NO: 436] | < 1 |  |  |
| R[Pen]NT[Trp(7-Me)]K(Ac)[Pen][N,N,N‑trimethylethanaminium][2‑amino‑3‑(6-hydroxynaphthalen-2-yl)propanoic acid][Thp]EN[3Pal][Sar] (disulfide 2-7 (inferred); not fully specified; ends not checked) [SEQ ID NO: 435] | < 0.1 |  |  |

Continued, in another order:

| PBMC pSTAT3 IC50 [2] [nM] | IL23R Reporter Assay IC50 [2] [nM] | Molecule | also measured |
| --- | --- | --- | --- |
| > 1 |  | R[Pen]NT[Trp(7-Me)]K(Ac)[Pen][2‑amino‑3‑(4-(2-aminoethoxy)phenyl)propanoic acid][2‑amino‑3‑(6-(4-methoxyphenyl)naphthalen-2-yl)propanoic acid][Thp]EN[Thp] (disulfide 2-7 (inferred); ends not checked) [SEQ ID NO: 438] |  |
| > 1 |  | R[Pen]NT[Trp(7-Me)]K(Ac)[Pen][2‑amino‑3‑(4-(2-aminoethoxy)phenyl)propanoic acid][2‑amino‑3‑(6-(3-(trifluoromethyl)-1H-pyrazol-4-yl)naphthalen-2-yl)propanoic acid][Thp]EN[Thp] (not fully specified (bridges); ends and bridges not checked) [SEQ ID NO: 434] |  |
|  | < 10 | R[Pen]NT[Trp(7-Me)]K(Ac)[Pen][2‑amino‑3‑(4-(2-aminoethoxy)phenyl)propanoic acid][2‑amino‑3‑(6-hydroxynaphthalen-2-yl)propanoic acid][Thp]KN[3Pal][Sar] (not fully specified (bridges); ends and bridges not checked; also: K11: lipidated lysine, lipid not given here) [SEQ ID NO: 86] |  |
